Measured values: patent publication US20250376500A1

Target: IGF-1 receptor (IGF1R) on DU145 cells and on immortalized human meibomian gland epithelial cells (human) (UniProt P08069)
Test: cell-based or functional assay

Sequence of IGF-1 receptor (IGF1R) on DU145 cells and on immortalized human meibomian gland epithelial cells (human) (P08069 31-1367): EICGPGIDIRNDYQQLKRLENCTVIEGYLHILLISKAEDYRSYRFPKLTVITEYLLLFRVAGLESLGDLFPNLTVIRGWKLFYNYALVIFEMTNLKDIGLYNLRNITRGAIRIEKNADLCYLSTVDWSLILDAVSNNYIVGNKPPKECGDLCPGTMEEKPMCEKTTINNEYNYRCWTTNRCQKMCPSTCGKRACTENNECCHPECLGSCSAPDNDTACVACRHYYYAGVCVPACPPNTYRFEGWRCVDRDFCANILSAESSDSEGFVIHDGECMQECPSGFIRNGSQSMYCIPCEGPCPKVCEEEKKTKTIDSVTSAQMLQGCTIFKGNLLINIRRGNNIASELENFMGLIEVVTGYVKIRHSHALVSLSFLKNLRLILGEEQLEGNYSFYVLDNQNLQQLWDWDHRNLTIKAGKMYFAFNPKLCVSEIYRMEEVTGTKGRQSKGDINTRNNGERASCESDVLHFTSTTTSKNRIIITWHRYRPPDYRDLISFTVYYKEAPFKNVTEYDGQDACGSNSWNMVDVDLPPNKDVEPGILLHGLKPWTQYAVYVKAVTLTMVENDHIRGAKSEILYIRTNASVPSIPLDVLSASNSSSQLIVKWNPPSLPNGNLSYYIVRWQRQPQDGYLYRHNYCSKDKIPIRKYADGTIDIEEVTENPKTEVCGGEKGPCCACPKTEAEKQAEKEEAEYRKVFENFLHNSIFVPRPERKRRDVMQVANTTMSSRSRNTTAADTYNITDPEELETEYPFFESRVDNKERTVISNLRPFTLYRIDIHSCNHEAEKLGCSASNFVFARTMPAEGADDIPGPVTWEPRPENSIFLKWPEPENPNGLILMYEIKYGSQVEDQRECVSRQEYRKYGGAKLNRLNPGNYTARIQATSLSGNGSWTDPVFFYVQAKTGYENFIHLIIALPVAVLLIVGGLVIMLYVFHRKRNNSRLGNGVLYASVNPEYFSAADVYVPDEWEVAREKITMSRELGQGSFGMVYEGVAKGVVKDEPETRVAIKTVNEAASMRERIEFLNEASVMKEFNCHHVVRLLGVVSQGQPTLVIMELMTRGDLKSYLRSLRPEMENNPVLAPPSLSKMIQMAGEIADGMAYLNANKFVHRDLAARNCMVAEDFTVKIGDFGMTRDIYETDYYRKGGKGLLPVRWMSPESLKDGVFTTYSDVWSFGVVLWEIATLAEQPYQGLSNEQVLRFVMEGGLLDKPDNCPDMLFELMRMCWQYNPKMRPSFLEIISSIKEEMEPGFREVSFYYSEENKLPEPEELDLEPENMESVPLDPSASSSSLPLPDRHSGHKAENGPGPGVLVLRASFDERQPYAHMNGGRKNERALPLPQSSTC

Going from IGF-1 Des1-3 (SEQ ID NO: 8) (ligand) to “IGF-1 E3R (SEQ ID NO: 4) (from UniProt P05019 49-118) (ligand)”, the EC50 of AKT S473 phosphorylation in DU145 cells rises from 2.3 nM to 4.5 nM (2-fold).

With “IGF-1 Ea (SEQ ID NO: 7) (from UniProt P17647 26-130) (ligand)” the EC50 of AKT S473 phosphorylation in DU145 cells was 8.7 nM.
